Data reported in publication PMC9396398, “Crystal structure of Ankyrin-G in complex with a fragment of Neurofascin reveals binding mechanisms required for integrity of the axon initial segment” (The Journal of Biological Chemistry, 2022).

Target: T1, AnkG R1-24 V282Q (Rattus norvegicus)
T1 chain: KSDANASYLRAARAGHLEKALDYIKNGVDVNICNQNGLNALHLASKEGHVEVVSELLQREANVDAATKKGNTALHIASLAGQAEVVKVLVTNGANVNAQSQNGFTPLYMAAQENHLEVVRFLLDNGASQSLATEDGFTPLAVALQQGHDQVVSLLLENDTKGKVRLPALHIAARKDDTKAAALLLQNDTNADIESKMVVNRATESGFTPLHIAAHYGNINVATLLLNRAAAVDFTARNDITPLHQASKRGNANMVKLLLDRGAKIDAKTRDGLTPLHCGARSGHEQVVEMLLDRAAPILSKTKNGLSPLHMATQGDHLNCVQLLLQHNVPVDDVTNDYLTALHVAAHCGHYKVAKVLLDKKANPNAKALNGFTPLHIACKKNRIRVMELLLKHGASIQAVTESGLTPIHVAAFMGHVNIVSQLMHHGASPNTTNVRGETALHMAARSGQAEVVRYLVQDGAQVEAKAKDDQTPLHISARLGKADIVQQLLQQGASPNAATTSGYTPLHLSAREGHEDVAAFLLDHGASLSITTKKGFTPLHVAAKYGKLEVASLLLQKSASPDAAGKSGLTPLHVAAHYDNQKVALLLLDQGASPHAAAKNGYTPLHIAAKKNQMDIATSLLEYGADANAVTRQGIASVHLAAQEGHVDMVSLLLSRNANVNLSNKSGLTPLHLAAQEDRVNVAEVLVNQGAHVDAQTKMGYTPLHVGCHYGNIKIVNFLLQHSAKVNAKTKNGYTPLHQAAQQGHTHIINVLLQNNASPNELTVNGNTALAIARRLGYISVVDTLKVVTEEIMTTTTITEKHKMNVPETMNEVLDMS
Test: ITC

B1: Nfasc ankyrin-binding domain (ABD, residues 1187-1214) (domain or fragment, UniProt P97685 1187-1214, looked up)
chain: SDDSLVDYGEGGEGQFNEDGSFIGQYTV
notes: also called Nfasc ABD; source: E. coli BL21 (DE3), purified (Ni-NTA, size-exclusion chromatography)
Binder B1 has a Kd of 1300 nM.
